Measured values reported in patent US20060252116A1, “Icam-4 binding sites” (priority 2002, published 2006).

Legend:
α4β1 integrin (VLA-4) [1] = molecular target: α4β1 integrin (VLA-4) (UniProt P13612); assay: HEL cell adhesion to coated human ICAM-4Fc (2.5 ug/ml); value is for the MIXTURE of SEQ ID NO: 9, 10 and control peptide 13, each peptide 750 uM
α4β1 integrin (VLA-4) [2] = molecular target: α4β1 integrin (VLA-4) (UniProt P13612); assay: HEL cell adhesion to coated murine ICAM-4Fc (5 ug/ml); value is for the MIXTURE with control peptide SEQ ID NO: 13, each peptide 500 uM
α4β1 integrin (VLA-4) [3] = molecular target: α4β1 integrin (VLA-4) (UniProt P13612); assay: HEL cell adhesion to coated human ICAM-4Fc (2.5 ug/ml); value is for the MIXTURE of SEQ ID NO: 9, 10 and 11, each peptide 750 uM
α4β1 integrin (VLA-4) [4] = molecular target: α4β1 integrin (VLA-4) (UniProt P13612); assay: HEL cell adhesion to coated murine ICAM-4Fc (5 ug/ml), peptide 500 uM; competitor murine ICAM-4Fc
α4β1 integrin (VLA-4) [5] = molecular target: α4β1 integrin (VLA-4) (UniProt P13612); assay: HEL cell adhesion to coated murine ICAM-4Fc (5 ug/ml); value is for the MIXTURE of SEQ ID NO: 9 and 10, each peptide 500 uM
α4β1 integrin (VLA-4) [6] = molecular target: α4β1 integrin (VLA-4) (UniProt P13612); assay: HEL cell adhesion to coated human ICAM-4Fc (2.5 ug/ml); value is for the MIXTURE of SEQ ID NO: 10, 11 and control peptide 13, each peptide 750 uM
α4β1 integrin (VLA-4) [7] = molecular target: α4β1 integrin (VLA-4) (UniProt P13612); assay: HEL cell adhesion to coated human ICAM-4Fc (2.5 ug/ml); value is for the MIXTURE of SEQ ID NO: 10 and 11, each peptide 750 uM
α4β1 integrin (VLA-4) [8] = molecular target: α4β1 integrin (VLA-4) (UniProt P13612); assay: HEL cell adhesion to coated human ICAM-4Fc (2.5 ug/ml); value is for the MIXTURE with control peptide SEQ ID NO: 13, each peptide 750 uM
α4β1 integrin (VLA-4) [9] = molecular target: α4β1 integrin (VLA-4) (UniProt P13612); assay: HEL cell adhesion to coated human ICAM-4Fc (5 ug/ml); value is for the MIXTURE of SEQ ID NO: 9 and 10, each peptide 500 uM
α4β1 integrin (VLA-4) [10] = molecular target: α4β1 integrin (VLA-4) (UniProt P13612); assay: HEL cell adhesion to coated human ICAM-4Fc (2.5 ug/ml), peptide 750 uM; competitor human ICAM-4Fc
α4β1 integrin (VLA-4) [11] = molecular target: α4β1 integrin (VLA-4) (UniProt P13612); assay: HEL cell adhesion to coated human ICAM-4Fc (5 ug/ml), peptide 500 uM; competitor human ICAM-4Fc
α4β1 integrin (VLA-4) [12] = molecular target: α4β1 integrin (VLA-4) (UniProt P13612); assay: HEL cell adhesion to coated human ICAM-4Fc (5 ug/ml); value is for the MIXTURE with control peptide SEQ ID NO: 13, each peptide 500 uM
α4β1 integrin (VLA-4) [13] = molecular target: α4β1 integrin (VLA-4) (UniProt P13612); assay: HEL cell adhesion to coated human ICAM-4Fc (2.5 ug/ml); value is for the MIXTURE of SEQ ID NO: 9 and 10, each peptide 750 uM
α4β1 integrin (VLA-4) [14] = molecular target: α4β1 integrin (VLA-4) (UniProt P13612); assay: HEL cell adhesion to coated human NCAMFc (control), no peptide
α4β1 integrin (VLA-4) [15] = molecular target: α4β1 integrin (VLA-4) (UniProt P13612); assay: HEL cell adhesion to coated human ICAM-4Fc (2.5 ug/ml); value is for the MIXTURE of SEQ ID NO: 9, 11 and control peptide 13, each peptide 750 uM
α4β1 integrin (VLA-4) [16] = molecular target: α4β1 integrin (VLA-4) (UniProt P13612); assay: HEL cell adhesion to coated human ICAM-4Fc (2.5 ug/ml); value is for the MIXTURE of SEQ ID NO: 9 and 11, each peptide 750 uM

Sequence of α4β1 integrin (VLA-4) (P13612 34-1032, chain 1 of 2): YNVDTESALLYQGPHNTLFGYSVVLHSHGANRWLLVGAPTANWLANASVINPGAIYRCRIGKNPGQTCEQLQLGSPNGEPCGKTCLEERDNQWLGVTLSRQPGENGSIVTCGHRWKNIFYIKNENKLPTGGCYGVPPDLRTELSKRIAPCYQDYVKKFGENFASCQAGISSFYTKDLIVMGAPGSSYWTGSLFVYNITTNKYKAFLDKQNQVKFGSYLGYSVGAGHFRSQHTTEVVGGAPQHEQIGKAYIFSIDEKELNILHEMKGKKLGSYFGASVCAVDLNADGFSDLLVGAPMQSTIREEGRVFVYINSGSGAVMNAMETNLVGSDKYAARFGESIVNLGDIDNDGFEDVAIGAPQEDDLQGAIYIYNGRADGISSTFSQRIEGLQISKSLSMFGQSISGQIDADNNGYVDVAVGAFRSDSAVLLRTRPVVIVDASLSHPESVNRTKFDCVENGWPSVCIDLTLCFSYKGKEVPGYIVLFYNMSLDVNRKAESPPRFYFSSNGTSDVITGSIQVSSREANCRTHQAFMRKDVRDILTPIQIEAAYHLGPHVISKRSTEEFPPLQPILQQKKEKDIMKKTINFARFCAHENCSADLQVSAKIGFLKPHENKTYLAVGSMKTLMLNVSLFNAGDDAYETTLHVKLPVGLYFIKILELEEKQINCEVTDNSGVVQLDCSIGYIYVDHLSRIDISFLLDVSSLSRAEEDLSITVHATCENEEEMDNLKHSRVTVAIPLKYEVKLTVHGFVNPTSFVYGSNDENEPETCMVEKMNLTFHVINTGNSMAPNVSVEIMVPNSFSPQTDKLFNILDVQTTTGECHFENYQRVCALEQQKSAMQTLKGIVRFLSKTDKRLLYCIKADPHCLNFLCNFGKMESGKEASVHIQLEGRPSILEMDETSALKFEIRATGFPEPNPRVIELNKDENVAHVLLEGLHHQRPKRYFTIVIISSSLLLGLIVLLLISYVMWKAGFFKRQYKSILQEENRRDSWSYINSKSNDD
Sequence of α4β1 integrin (VLA-4) (P05556 21-798, chain 2 of 2, further chain): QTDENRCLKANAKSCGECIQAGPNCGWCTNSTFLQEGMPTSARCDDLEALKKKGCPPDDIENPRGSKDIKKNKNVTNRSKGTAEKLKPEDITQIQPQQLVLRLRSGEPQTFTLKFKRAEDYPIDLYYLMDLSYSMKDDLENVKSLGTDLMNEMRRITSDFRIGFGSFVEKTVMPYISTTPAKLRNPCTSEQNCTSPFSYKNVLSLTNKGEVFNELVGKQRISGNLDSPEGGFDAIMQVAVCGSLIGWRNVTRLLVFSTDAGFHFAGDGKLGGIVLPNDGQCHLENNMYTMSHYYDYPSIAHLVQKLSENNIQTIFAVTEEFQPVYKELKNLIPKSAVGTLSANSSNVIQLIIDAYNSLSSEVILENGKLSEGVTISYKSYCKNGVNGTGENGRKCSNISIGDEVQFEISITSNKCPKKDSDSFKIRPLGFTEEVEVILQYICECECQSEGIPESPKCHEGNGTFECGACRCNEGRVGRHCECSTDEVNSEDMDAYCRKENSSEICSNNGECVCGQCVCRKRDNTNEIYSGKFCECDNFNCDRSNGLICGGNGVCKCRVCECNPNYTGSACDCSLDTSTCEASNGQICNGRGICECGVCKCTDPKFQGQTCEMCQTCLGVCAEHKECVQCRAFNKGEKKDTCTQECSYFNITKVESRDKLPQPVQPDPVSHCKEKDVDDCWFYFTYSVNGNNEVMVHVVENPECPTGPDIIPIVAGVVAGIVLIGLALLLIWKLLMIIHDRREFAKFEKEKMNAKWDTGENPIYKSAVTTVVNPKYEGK

input cells bound as % of binding to ICAM-4Fc in the absence of peptides (α4β1 integrin (VLA-4) [1]) [%] | input cells bound as % of binding to murine ICAM-4Fc in the absence of peptides (α4β1 integrin (VLA-4) [2]) [%] | input cells bound as % of binding to ICAM-4Fc in the absence of peptides (α4β1 integrin (VLA-4) [3]) [%] | input cells bound as % of binding to murine ICAM-4Fc in the absence of peptides (α4β1 integrin (VLA-4) [4]) [%] | input cells bound as % of binding to murine ICAM-4Fc in the absence of peptides (α4β1 integrin (VLA-4) [5]) [%] | input cells bound as % of binding to ICAM-4Fc in the absence of peptides (α4β1 integrin (VLA-4) [6]) [%] | input cells bound as % of binding to ICAM-4Fc in the absence of peptides (α4β1 integrin (VLA-4) [7]) [%] | input cells bound as % of binding to ICAM-4Fc in the absence of peptides (α4β1 integrin (VLA-4) [8]) [%] | input cells bound as % of binding to ICAM-4Fc in the absence of peptides (α4β1 integrin (VLA-4) [9]) [%] | input cells bound as % of binding to ICAM-4Fc in the absence of peptides (α4β1 integrin (VLA-4) [10]) [%] | input cells bound as % of binding to ICAM-4Fc in the absence of peptides (α4β1 integrin (VLA-4) [11]) [%] | input cells bound as % of binding to ICAM-4Fc in the absence of peptides (α4β1 integrin (VLA-4) [12]) [%] | input cells bound as % of binding to ICAM-4Fc in the absence of peptides (α4β1 integrin (VLA-4) [13]) [%] | input cells bound as % of binding to ICAM-4Fc in the absence of peptides (α4β1 integrin (VLA-4) [14]) [%] | input cells bound as % of binding to murine ICAM-4Fc in the absence of peptides (α4β1 integrin (VLA-4) [14]) [%] | input cells bound as % of binding to ICAM-4Fc in the absence of peptides (α4β1 integrin (VLA-4) [15]) [%] | input cells bound as % of binding to ICAM-4Fc in the absence of peptides (α4β1 integrin (VLA-4) [16]) [%] | Substance
49 | 55 | 42 | 58 | 47 | 40 | 41 | 55 | 35 | 58 | 58 | 56 | 52 |  |  |  |  | tRwATSRit peptide (SEQ ID NO: 10)
 |  |  |  |  |  |  |  |  |  |  |  |  | 3 | 19 |  |  | human NCAMFc (from UniProt P13591 20-718) (Fc fusion)
 |  | 42 |  |  | 40 | 41 | 46 |  | 50 |  |  |  |  |  | 42 | 43 | aWssLahcl peptide (SEQ ID NO: 11)
49 | 70 | 42 | 67 | 47 |  |  | 59 | 35 | 64 | 61 | 60 | 52 |  |  | 42 | 43 | svpFWVrms peptide (SEQ ID NO: 9)
